Assay results published in article PMC7791120 (2021).

Molecular target: T1, purified TRIB2 protein (ab186094, Abcam) (Homo sapiens (Human), UniProt Q92519)
T1 chain: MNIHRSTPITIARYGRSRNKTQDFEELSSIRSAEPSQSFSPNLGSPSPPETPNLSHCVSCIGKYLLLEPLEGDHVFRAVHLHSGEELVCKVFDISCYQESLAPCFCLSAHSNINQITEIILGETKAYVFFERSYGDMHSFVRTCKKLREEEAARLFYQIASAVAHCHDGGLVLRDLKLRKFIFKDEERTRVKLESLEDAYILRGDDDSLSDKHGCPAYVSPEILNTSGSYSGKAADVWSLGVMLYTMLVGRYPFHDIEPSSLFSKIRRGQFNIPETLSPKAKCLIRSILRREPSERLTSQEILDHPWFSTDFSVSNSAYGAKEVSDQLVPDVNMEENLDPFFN
Test: in vitro reciprocal co-IP

binding result: binds
B1: purified PCBP2 protein (H00005094-P01, Abnova) (protein)
chain: MDTGVIEGGLNVTLTIRLLMHGKEVGSIIGKKGESVKKMREESGARINISEGNCPERIITLAGPTNAIFKAFAMIIDKLEEDISSSMTNSTAASRPPVTLRLVVPASQCGSLIGKGGCKIKEIRESTGAQVQVAGDMLPNSTERAITIAGIPQSIIECVKQICVVMLETLSQSPPKGVTIPYRPKPSSSPVIFAGGQDRYSTGSDSASFPHTTPSMCLNPDLEGPPLEAYTIQGQYAIPQPDLTKLHQLAMQQSHFPMTHGNTGFSGIESSSPEVKGYWGLDASAQTTSHELTIPNDLIGCIIGRQGAKINEIRQMSGAQIKIANPVEGSTDRQVTITGSAASISLAQYLINVRLSSETGGMGSS
